The test deals with T1, full-length human tau (hTau40) (human, UniProt P10636-8 1-441).
T1 construct: plasmid PT7CHT40; The same construct was used as monomer (no inducer) and as filaments or oligomers induced with 75 uM arachidonic acid; No tag removal is described; also called hTau40^m (incubated without inducer, monomeric); hTau40^ARA (incubated with arachidonic acid, filaments and oligomers); source: E. coli BL21, purified (boiled lysate, HIS-select Nickel resin)
The experiment in a line: ELISA; nondenaturing sandwich ELISA; Tau13 capture antibody, anti-EFhd2 detection antibody; 2 uM hEFhd2 and 2 uM hTau40 co-incubated overnight at room temperature without arachidonic acid (hTau40^m/hEFhd2), then diluted in 1X PBS. Particulars: both partners purified. (In general: ELISA stands for enzyme-linked immunosorbent assay.)

T1 sequence (P10636 other isoform, or with tags, fused parts or gaps): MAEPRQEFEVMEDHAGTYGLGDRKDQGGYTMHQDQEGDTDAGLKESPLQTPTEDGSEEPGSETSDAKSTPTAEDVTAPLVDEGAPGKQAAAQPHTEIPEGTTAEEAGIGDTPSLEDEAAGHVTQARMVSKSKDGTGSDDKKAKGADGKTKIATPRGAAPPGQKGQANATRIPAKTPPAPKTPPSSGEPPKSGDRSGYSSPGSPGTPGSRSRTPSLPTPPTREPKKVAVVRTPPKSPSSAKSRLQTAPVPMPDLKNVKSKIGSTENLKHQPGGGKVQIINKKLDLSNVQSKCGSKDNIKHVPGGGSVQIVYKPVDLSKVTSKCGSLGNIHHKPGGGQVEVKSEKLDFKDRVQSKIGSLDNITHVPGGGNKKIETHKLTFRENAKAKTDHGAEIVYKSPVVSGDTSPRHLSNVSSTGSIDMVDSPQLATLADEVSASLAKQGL

B1: recombinant human EFhd2 (natural protein, UniProt Q96C19 1-240, looked up)
chain: MATDELATKLSRRLQMEGEGGGETPEQPGLNGAAAAAAGAPDEAAEALGSADCELSAKLLRRADLNQGIGEPQSPSRRVFNPYTEFKEFSRKQIKDMEKMFKQYDAGRDGFIDLMELKLMMEKLGAPQTHLGLKNMIKEVDEDFDSKLSFREFLLIFRKAAAGELQEDSGLCVLARLSEIDVSSEGVKGAKSFFEAKVQAINVSSRFEEEIKAEQEERKKQAEEMKQRKAAFKELQSTFK
notes: wild type human EFhd2; No tag removal is described; also called hEFhd2; EF-hand domain 2 protein; source: E. coli BL21 (DE3), purified (HIS-select Nickel resin)
For B1, the binding result is “binds”.

These data come from publication PMC11100465, “EFhd2 co-aggregates with monomeric and filamentous tau in vitro” (Frontiers in Neuroscience, 2024).
